Experimental findings from the domain aggregation screens of Martell et al. (2025) are described below.

This series in a line: soluble fraction after stress (log2 fold change); higher = more stays soluble; pooled small domains, quantitative proteomics. The following applies: stress: pH 4. In a few lines: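 After pH 4 stress, pooled custom libraries of small protein domains were quantified with high-throughput quantitative proteomics. Aggregation propensity is taken from the fold change in each domain's soluble amount following the acid stress. The scale is log2, where higher values mean more stayed soluble.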

For “HMSTGGDLTQRERELLGLMARGLSNQEISKRLTIAMPTVKFHVTNILAKLHADNRTEAVLVALKNKLVAL”, the “soluble fraction (log2)” value is -0.175.
Regarding “HMSTINGIEKYLSSGLIPYIGPKTAKRIVEKFGLDTLEIIQYNPERLKEIEGIGDKKLKKIVEAFEEQG”, the “soluble fraction (log2)” value was -0.333.
“HMSTISPNAFNFLQQNLNKFSDDAEGKMIKDILSKTTYDEYVKNEKSKTDFNSLLRRQTTTGDDNLNRYIN”: the “soluble fraction (log2)” value was found to be 0.072.
For the sequence “HMSTKEFTIHAGEWSYRVSQKLENLGLVSDAKKFDQYLEDNGYSSKIKIGHYTISKDADFEEIAKEIT”, the “soluble fraction (log2)” value was determined as 0.0658.
“HMSTKRGEILEFLKDFSARKGYAPSVREIMQAVGLKSTASVHYHLSELHKAGLITVDGTKNRAISLA”: the “soluble fraction (log2)” value turned out to be 0.0891.
Take “HMSTMKSKWFVSSNPIAGVMKYQAQRKKDVNAVDSSENREASGQWYTDKEEAQAIVDKLNAEEQIKEAGK”: the “soluble fraction (log2)” value turned out to be 0.0846.
The figure for “HMSTMLPFVMRELVELVMKKKALPLGDALYYIYSSKLYKSLLDKSTKLWYSSTLSLYETLEKEKTEEKRRY” is -0.802; for “HMSTMTDAQRHLFANKLSQLPEMGKYSHGTESYQQFAVRIAEMLQTPKKFKELYPYLQKVGFKA” it is 0.0225; for “HMSTNYVQVLRAALNGVSGRKLAQQYRVSRDTVAILLRQAKIQGWQRAEDLENITEEDLVALLSG” it is -0.987.
“HMSTPLPTGLPRGTIIEYTVQTDETLAIIAAKFNSTVDDIMTRNKITDPNTIYAGQILKVAINLVTP”: the “soluble fraction (log2)” value is -0.267.
The result for “HMSTPVPIEGQPTENLNLRDQPSTSGKILTTIPKGKTVTILSEKNANGWYKVSYNGKTGYVSGSYFKVTK” reads -0.14; that for “HMSTSERLKQVMEVKGFNLKTFSEQADIPYRTLQNYILTNREPSAESLAKLHSQLGINLNWLMSGKGEMF”, 0.109; that for “HMSTSIADNSSITYKVRKGDSLASIAKRHGVNINDVMRWNSVITKASQIQPGDMLTLYVRDS”, at least 0.43.
With “HMSTTALLEKMVRYIRTLPVISQVVLSLHYYRGMELREIASELDITESRASQLHTTAVLGIRDLLSSY”, the “soluble fraction (log2)” value is -2.02.
Regarding “HMSTTGIVKWFNEEKGFGFITQDQGGADVFVHYRAIASEGFKTLAEGQKVSFEVEQGQKGLQAANVQA”, the “soluble fraction (log2)” value is -0.948.
Consider “HMSTTHLTASVIKDKVNVRSEADSQNGAIIDKARTGERLLVTDYGNKWTGIVLPDGKRGYIMTEYLQF”, for which the “soluble fraction (log2)” value was found to be 0.22.
Regarding “HMSTTSYTQFMEDAKAGKIARVDIKGREITVTPTEGSRYVITSPGDLWMVDDLRKDGVQVYGPP”, the “soluble fraction (log2)” value was 0.137.
Take “HMSTTYLNEGDRITLTDSVNIRTSMSETADRVGLAYQGDVVTVIMSYAEGWTKVSWNGQTGYAKTEYL”: the “soluble fraction (log2)” value was -0.0679.
In the case of “HMSTVIENVFKNFEVYEIKKGDTFYNIEKRFGVNRQELLVLNPELKEGLKLGMVLKIKEIIP”, the “soluble fraction (log2)” value was 0.192.
As to “HMSTYTETETAYLKAYSAAGVDGKISDSERGILNMTAEALGITVERTTELEAMFNLTVEEEA”, the “soluble fraction (log2)” value was -1.39.
With “HMSVDIWTGAQTGNIEAVKQHLADGVDVNSKSDIGRTALDVAIAFKQPLITDLLRKHGGKTRDELKAAE”, the “soluble fraction (log2)” value was -0.397.
Turning to “HMSVEVADITRAYYEGVGFEWWIRSVRLDPNELIVDNDDEGKLYRVPFEINGEEVTFGDPVEVKIRYE”, the “soluble fraction (log2)” value is -0.71.
In the case of “HMSVFGDNVARLRAEHGMSQRALAERLEITNGTVAAWESRDTLPDYDRIRQIAEIFDVPIPQLFAKYIP”, the “soluble fraction (log2)” value is -1.2.
For the sequence “HMSVISVETAKSKALAHAGLTASKVTFIENKLEWDDGRQVYDIEFYTSDYKEYDYTIDAVSGQVLEFDY”, the “soluble fraction (log2)” value is 0.114.
In the case of “HMSVKLMEVKGASTVVSRQVREAVSIVFPTSSMRLDLVALKARIEGVDAVKRADVYLRNGILEIQIDER”, the “soluble fraction (log2)” value was -0.981.
The figure for “HMSVKLYPNPTRSVTTFATDVDKWYLYDNQGKLVSEGNTKTIDVTAFPVGIYFVKTIKGNNSTFVKLIV” is -0.183.
On to “HMSVLNLQTDIPKKYTDVLGTSVKGRLNTLVHNVIINSVDRPVIQMSEEVHEAMQGLRIFMFENVYRNPV”, for which the “soluble fraction (log2)” value stood at 0.22.
Regarding “HMSVLSEQIKEQLMEDIFHKKYKAGDRIVESALARELGVSQASVREALRSLIAMGFLENEPFKGITVR”, the “soluble fraction (log2)” value came to 0.107.
Consider “HMSVNAPMPGKIVNVLVSEGQKVNSGDVLLILEAMKMQNEIAATQAGTVKAINVAAGQSVKVGDALVN”, for which the “soluble fraction (log2)” value was -0.147.
With “HMSVPQENKDLLGRSIEIFYAGKTVEAKVTDTGALAPLGRALDLSPATWRAFGASSISDWGVRGVFYRFVA”, the “soluble fraction (log2)” value is -0.0838.
In the case of “HMSVSTGTITGSVVNLREEPNTSSKVLDKLPKDTVVYVLSASGEWYNVSYGDKTGWVYGEYLA”, the “soluble fraction (log2)” value is -0.478.
Regarding “HMSVTSEIGAKIKYFRKSKHFSLQEMADLLYKSKSTLSKYENGQISIDIETLYAIAKVLGVHVEQLLYSEP”, the “soluble fraction (log2)” value was determined as 0.222.
“HMSVTSIEGRVVYDENANKIGIAKQVGIDSTQSMVLVLTKNDGTEGSISWNNIKKIGEIILLGN”: the “soluble fraction (log2)” value is -1.34.
Regarding “HMSWAGRRSLAALEARYRDETGISNLKIKHNGVLGYHIEVPSKSADKLMAPDSGFTHRQTLAGAVR”, the “soluble fraction (log2)” value is 0.00623.
On to “HMSYDAINGYEPSDLRGSLTLEQTASMLNLPLTDVYARLGLPANYPSGATLKDGAADMGMGLSDFKHQLF”, for which the “soluble fraction (log2)” value is 0.0723.
For the sequence “HMSYLDTLPGRRVAAQGAITGDAGTLAVDGDTWSARVEPGAPDVAPGDEVTVLRIDGATLVVRPLP”, the “soluble fraction (log2)” value stood at 0.0453.
As for “HMSYPFSEDALKEKIREYLKHNRSINRKVLEAEFHIRKQTALNWLKKLEKSGFLIKEGSRNAPVYFLAE”, the “soluble fraction (log2)” value was 0.0835.
With “HMSYQADEIKEKLIDILQNQKTGLSGLEISERIGINRITMTKYLQVFAAEGFIKQKNIGNVIIWFIEDGTE”, the “soluble fraction (log2)” value is -0.8.
“HMSYTYPVARLNHIKGKWYVLVSVPAHLRHLFPNQRDLRRSTGTDDESLAKRKQHALAQEIYDLFD”: the “soluble fraction (log2)” value is 0.00145.
As for “HMTAFEPYLVKVMASVLNIRKGPGTSYAITGQIKDKGTYTIVAESGSWGKLKSGAGWISLSYTSKAGKA”, the “soluble fraction (log2)” value was -0.591.
On to “HMTAFSEQLIKLRKQKGLSQEQLGAAVGVTRQTVSKWELGDTTPELGKLVQLSDYFQLSIDELVGH”, for which the “soluble fraction (log2)” value came to 0.177.
The figure for “HMTAGTTALNKLQQGMSTQQVQAALGTPSDRTVKESGVELWKYYYPYENMLLYLKFRDGHLVSFGTN” is -0.244; for “HMTAKQDLDSIYRHLVATRKSIAENPKMVSSIDDPQALIKMLDYAIQYFYTDKRDEALAVLEKNEEQLNFR” it is -0.206.
Consider “HMTALTTEDLERRFYAKTYEGESAQKRLARLEISVFGELRQGRPESDRLHDLNNAVLEKERAALNAGAVG”, for which the “soluble fraction (log2)” value was -0.0471.
Turning to “HMTAMQYVTIKDIADALGISKSSVSRALAGDVHNVSAQTIERVRAKALEMGYLRNNAAVNLR”, the “soluble fraction (log2)” value is 0.22.
For “HMTANDKRNALYRKIEVGRRQLPAMDEVAFRQLLAAEFGVESRKDMSVGQLSRLVNILAEKGAVF”, the “soluble fraction (log2)” value amounted to 0.0414.
The figure for “HMTANTLDLTYSQFLENVKNGSVNDVTIRGNNVSGNFSDGRKFKTYAVNDPTLVEKLTKMGVNISAAPL” is 0.14.
Regarding “HMTAPELSVGDYLEYRGKEYKVESLDMDGFITLTDTALEDAPRLISRVTFLTDEFIRSGEYMVIT”, the “soluble fraction (log2)” value is -1.4.
As to “HMTAQGDSSDAVQRAITEILRHEDPSHPFSDQQLVIKLRTMDISVSRRTVTKYRKLLHIPSSTHRK”, the “soluble fraction (log2)” value was 0.0972.
The result for “HMTARYQQVEDYIVRRIQDGSWPPGHRLPSEHELVQQFGMSRMTVNRALRDLMQKGRIVRVAGVGSFVAQD” reads 0.22.
Take “HMTATSKKAAWDEVNKIFPTDYERSAAESERAGYAIFRSTAEGVNAWISDLGDRLEINLPDGKTVNIWIEE”: the “soluble fraction (log2)” value is -0.624.
For “HMTATVPDSEAGIRLDVYAAALLGVSRAGAQKYIESGAVRVNGLPAPKNRRLESGDVIEAVLPDPE”, the “soluble fraction (log2)” value was at least 0.43.
Turning to “HMTAVAAEQQAQDAYRQTAANNLNEIQAKYKLPDSESDDFFTFAYERGFTQEDFIDIGLVDKIMGDYV”, the “soluble fraction (log2)” value was -0.203.
The figure for “HMTAVNEHELMNQFKLSLGYANGDDPQTKLSTDEKNDFMRFKEWATAMTKDSKMGKDPDYLKKLAVQWTLK” is 0.102; for “HMTAYEGLPVTLIIDGRVFQQNLQKMNLSVEWLRLELKKFGVTNLKEVLFASLDTEGKLFYQLKT” it is -0.878.
As to “HMTDEYYSYIGKTGTTITVLRPAGIAEVEGERLNVVSEGEFIRKGAAILVKEVEGARILVEEVN”, the “soluble fraction (log2)” value worked out at 0.349.
Take “HMTDFESYTVRVTATNLNIRKGAGTNFHSAGYIKPGVYTIVEEADGKGATRWGKLKSGMGWISLDYAKK”: the “soluble fraction (log2)” value was 0.428.
For “HMTDGYAMRLERLNSLEEYVLNKGTVSLEDLAERFGVSINTIRRDLNELISRGQIKKVYGGVSSLHD”, the “soluble fraction (log2)” value is -0.245.
With “HMTDIDATSIERAVAKRRHFFLSNIQDLTMKMARRLIEKDLGLAPKHLDAAPFKTRITELVDAVIALGD”, the “soluble fraction (log2)” value is -0.484.
“HMTDIKYLIADGNDIKHWDTASSSYVKVSELPLTSDKFKIYGDDIYHKERTGIIAASPILKIWSPSAE”: the “soluble fraction (log2)” value is -0.0343.
Consider “HMTDKLIAYSVDGILNVITSEAQSVKVYAIDGRLVRILQLGEGRNEVSGLAKGIYIVDNRKVAV”, for which the “soluble fraction (log2)” value worked out at 0.0217.
Consider “HMTDLNQIGERIKGLRDALGYSPEKMASILEQKVDDYLAYEEGTKDISLSVLQRIEKEFDIDLSTLLFGT”, for which the “soluble fraction (log2)” value is -1.17.
Consider “HMTDRKRDAIVQAAIGEFREHGFNGTSMDRVAAAADVSKRTVYNHFPSKEELFEAILLLMWE”, for which the “soluble fraction (log2)” value was -1.78.
As for “HMTDSISLTLNGDPRPFRAGATVADLVRDIGLDPAKVAVERNLEIVPRSTLENVHLADGDVLEIVHFV”, the “soluble fraction (log2)” value was -0.45.
As to “HMTDTIALRSVIAESGLKYKALAEIMGLSPYTLQMKIDNESEFKASEIDALANALGMDMQQRDSIFF”, the “soluble fraction (log2)” value was -0.406.
For “HMTDVIADMLTRIRNAASSKHQTVDIPSSNLKKEIAKILLEEGYIRDFIEIDDKKQGIIRITL”, the “soluble fraction (log2)” value was -0.617.
“HMTDYREILRLLSLGLSRTQIADSLNVSRTTVIHTLQRAVAQELDWQTAEGMSDRELVAKLFPV”: the “soluble fraction (log2)” value is -0.564.
The result for “HMTEAVYMPALQNKTLEEAQRIVEQYDLELEYTYEANAQVEEGRILSQTPQMGVLVERGEKVQAVVSLG” reads -0.43; that for “HMTEDELLAQFEEILDGYVGKPGGLIPALQTAQKLFGYLPKRVLQLISMKLDIPYSEVTGVVSFYSFFTTV”, -1.12.
